± gives the standard error. Fewer inactive variants are shown than the library holds.

The chains are these.
B1: glmS ribozyme (parent)
chain: AUAAAAGCGCCAGAACUACAGAAAUGUAGUUGACGAGGAGGAGGUUUAUCGAAUUUUCGGCGGAUGCCUCCAAA

Common to all, as to conditions: with glucosamine-6-phosphate
The variants in series [1] derive from B1. In words: self-cleavage kobs at 160 uM GlcN6P; higher = faster cleavage; RNA array. The method, boiled down:
(§1)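 The measurements used barcoded ribozyme variants on sequenced MiSeq chips, transcribed in situ by E. coli RNA polymerase and tracked at 37 °C with a hybridised Cy3 probe. Glucosamine-6-phosphate, 40 μM to 10 mM in HEPES/KCl/Mg(OAc)2 buffer, was flowed in while tiles were imaged over ~14 h. Baseline-normalised signals, also normalised to non-cleaving reference variants, gave per-tile medians that were fit to one- or two-exponential decays for kobs. kcat and KM resulted from weighted Michaelis–Menten fits across concentrations.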

In series [2] the parent is B1. In words: self-cleavage kobs at 2500 uM GlcN6P; higher = faster cleavage; RNA array. In outline:
as §1

Series [3] covers variants of B1. The series can be described thus: self-cleavage kobs at 640 uM GlcN6P; higher = faster cleavage; RNA array. The method, boiled down:
as §1

Variants of B1 are the subject of series [4]. In words: self-cleavage kobs at 10000 uM GlcN6P; higher = faster cleavage; RNA array. In outline:
as §1

In the case of AUAAAAACGCCAGAACUACAGAAAUGUAGCUGACGAGGAGGAGGUUUAUCGAAUUUUCGUCGGCUGCCUCCAAA, the “self-cleavage kobs at 160 uM GlcN6P” value with glucosamine-6-phosphate [1] is under 1e-05 s⁻¹. Also, in the series with glucosamine-6-phosphate [2], the “self-cleavage kobs at 2500 uM GlcN6P” value is under 1e-05 s⁻¹.
Consider AUAAAAGCGCCAGAACUACAGAAAUGUAGUUGACUAGGAGGAGGUUUAGCGAAUUUUCGGCGGAUGCCUCCAAA, for which the “self-cleavage kobs at 160 uM GlcN6P” value with glucosamine-6-phosphate [1] is under 1e-05 s⁻¹. For the same variant, the “self-cleavage kobs at 640 uM GlcN6P” value in the series with glucosamine-6-phosphate [3] is under 1e-05 s⁻¹. In addition, in the series with glucosamine-6-phosphate [2], the “self-cleavage kobs at 2500 uM GlcN6P” value is under 1e-05 s⁻¹. Further, the “self-cleavage kobs at 10000 uM GlcN6P” value with glucosamine-6-phosphate [4] was under 1e-05 s⁻¹.
Take AUAAAAGCGCCAGAACUACAGAAAUGUAGUUGACGAGGAAGAGGUUUGUGGAAUUUUCGGCGGAUGCCUCCAAA: the “self-cleavage kobs at 160 uM GlcN6P” value with glucosamine-6-phosphate [1] was under 1e-05 s⁻¹. In the series with glucosamine-6-phosphate [2], the “self-cleavage kobs at 2500 uM GlcN6P” value is under 1e-05 s⁻¹.
AUAAACGCGCCAGAAUUACAGAAAUGUAGUUGACGAGGAAGAGGUUUAUCGAAUUUCCGGCGGAUGCCACCAAA: the “self-cleavage kobs at 160 uM GlcN6P” value with glucosamine-6-phosphate [1] was under 1e-05 s⁻¹.
For AUAAAAGCGCCAGAACUACAGAAAUGUAGUUGACCAGGAGGAGGUUUAUCGAAUUUUCGGCUGAUGCCUCCAAA, the “self-cleavage kobs at 160 uM GlcN6P” value in the series with glucosamine-6-phosphate [1] was under 1e-05 s⁻¹. Besides, the “self-cleavage kobs at 640 uM GlcN6P” value with glucosamine-6-phosphate [3] was under 1e-05 s⁻¹. In the series with glucosamine-6-phosphate [2], the “self-cleavage kobs at 2500 uM GlcN6P” value was under 1e-05 s⁻¹. Further, the “self-cleavage kobs at 10000 uM GlcN6P” value with glucosamine-6-phosphate [4] is under 1e-05 s⁻¹.
Take AUAAACGCGCCAGAACUACAGAAAUGUAGUUGACGAGGAGUAGGUUUAUCGAAUUUUCGGCGGAUGCUUACAAA: the “self-cleavage kobs at 160 uM GlcN6P” value with glucosamine-6-phosphate [1] was under 1e-05 s⁻¹. For the same variant, the “self-cleavage kobs at 2500 uM GlcN6P” value in the series with glucosamine-6-phosphate [2] was 3.76e-05 ± 1.6e-05 s⁻¹.
For the variant AUAAAAGCGCCAGAACUACAGAAAUGUAGUUGACGAGGCGGAGUUCUAUCGAAUUUUCGUCGCAUGCAUCAAAA, the “self-cleavage kobs at 160 uM GlcN6P” value in the series with glucosamine-6-phosphate [1] was under 1e-05 s⁻¹. Also, the “self-cleavage kobs at 640 uM GlcN6P” value with glucosamine-6-phosphate [3] was under 1e-05 s⁻¹. In the series with glucosamine-6-phosphate [2], the “self-cleavage kobs at 2500 uM GlcN6P” value is under 1e-05 s⁻¹.
With AUAAAAGCUCCAGGACUACAGAAAUGUAGUUGACGAGGAGGAGGUUUAUCGAAAUCUCAGCGAAGGCCUCCAAA, the “self-cleavage kobs at 160 uM GlcN6P” value with glucosamine-6-phosphate [1] is under 1e-05 s⁻¹. In addition, the “self-cleavage kobs at 640 uM GlcN6P” value with glucosamine-6-phosphate [3] was under 1e-05 s⁻¹.
As to AUAAAAGCGCCAGAACUACAGAAAUGUAGCUGACGAGGAGGAGGUGUAUCGAAAUUUCGGCGGAUGCCUCCAAA, in the series with glucosamine-6-phosphate [1], the “self-cleavage kobs at 160 uM GlcN6P” value is under 1e-05 s⁻¹.
On to AUAAAAGCCCCAGAACUACAGAAAUGUAGUUGACGAGGAGGAGGAUCAUCGAAUUUUCGGCGGAUGCGUCCAAA, for which the “self-cleavage kobs at 160 uM GlcN6P” value in the series with glucosamine-6-phosphate [1] was under 1e-05 s⁻¹. Also, the “self-cleavage kobs at 640 uM GlcN6P” value with glucosamine-6-phosphate [3] is under 1e-05 s⁻¹. Moreover, the “self-cleavage kobs at 2500 uM GlcN6P” value in the series with glucosamine-6-phosphate [2] is under 1e-05 s⁻¹.
Take AUAAAAGCGCCAGAACUACAGAAAUGUAGUUGAAGGGGUGGAGGUUUCUCGAAUUUUCGGCGGAUGCCUCCAAA: the “self-cleavage kobs at 160 uM GlcN6P” value with glucosamine-6-phosphate [1] was under 1e-05 s⁻¹. Also, the “self-cleavage kobs at 2500 uM GlcN6P” value with glucosamine-6-phosphate [2] is under 1e-05 s⁻¹.
Regarding AUAAAAUCGCCAGAACUACAGAAAUGUAGUUGACGAGGAGGAGGUUUAUCGAAUUUUCGCCGGAUUCCUCCAAA, the “self-cleavage kobs at 160 uM GlcN6P” value with glucosamine-6-phosphate [1] was under 1e-05 s⁻¹.
On to AUAAAAGCGCCGGAACUACAGAAAUGUAGUUGACAAGGAGGAGGUUUAUCGAAUUUUCGGCGGAUGCCUCCAAA, for which the “self-cleavage kobs at 160 uM GlcN6P” value in the series with glucosamine-6-phosphate [1] was under 1e-05 s⁻¹. The “self-cleavage kobs at 640 uM GlcN6P” value with glucosamine-6-phosphate [3] was under 1e-05 s⁻¹. Besides, in the series with glucosamine-6-phosphate [4], the “self-cleavage kobs at 10000 uM GlcN6P” value is under 1e-05 s⁻¹.
Consider AUAAAAGCGCCAGAACUACAGAAAUGUAGCUGACGAGGAGGAGGUUUAUCGAAGUUUCGGCGGAUGCAUCCAAA, for which the “self-cleavage kobs at 160 uM GlcN6P” value with glucosamine-6-phosphate [1] was determined as 0.000132 ± 4.9e-05 s⁻¹.
AUAAAAGUGCCAGAACUACAGAAAUGUAGUUAACGAGGAGGAGGAUUAUCGAAUUCUCGGCGGAUGCCUCCAAA: the “self-cleavage kobs at 160 uM GlcN6P” value with glucosamine-6-phosphate [1] was under 1e-05 s⁻¹. Further, the “self-cleavage kobs at 640 uM GlcN6P” value with glucosamine-6-phosphate [3] was under 1e-05 s⁻¹. Besides, the “self-cleavage kobs at 2500 uM GlcN6P” value with glucosamine-6-phosphate [2] was under 1e-05 s⁻¹. In addition, the “self-cleavage kobs at 10000 uM GlcN6P” value with glucosamine-6-phosphate [4] is under 1e-05 s⁻¹.
As for AUAAAAGCGCCAGAACUACAGAAAUGUAGUUGAACAGGAGGAGGUUUAUCGAAUUUUCGGCGGAUGCCUCCAAA, the “self-cleavage kobs at 160 uM GlcN6P” value with glucosamine-6-phosphate [1] was under 1e-05 s⁻¹. In addition, in the series with glucosamine-6-phosphate [2], the “self-cleavage kobs at 2500 uM GlcN6P” value is under 1e-05 s⁻¹.
As for AUAAAAGCGCCACAACUACAGAAAUGUAUUUGACGACGAGGAGGUUUAUCGAAUUUUCGGCGGAUGCCUCUAAA, the “self-cleavage kobs at 160 uM GlcN6P” value with glucosamine-6-phosphate [1] was under 1e-05 s⁻¹.

For the origin of these results see the supplement of paper PMC7125110.
